Test results published in the nanobody polyreactivity screen of Harvey et al. (2022).

Assay: yeast display, Sf9 membrane polyspecificity reagent, FACS + sequencing; frameworks hold sequencing errors
Summary of the method: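 A synthetic nanobody library was expressed on Saccharomyces cerevisiae BJ5465 by galactose induction for 36–48 hours. The library was stained for 1 hour at 4 °C with 10% biotinylated, detergent-solubilized Sf9 membrane reagent and enriched with streptavidin microbeads before FACS. Low and high (top ~1%) gates were set on anti-HA fluorescence for expression and streptavidin fluorescence for reagent binding, and each polyreactivity label reflects the gate of origin.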

Sequence | polyreactivity (PSR sort gate)
QVQLVESGGGLVQAGGSLRLSCAASGRTFGHNAMGWYRQAPGKEREFVAAITYSGVRTFYADSVKGRFTISRDNAKNTVYLQMNSLKPEDTAVFYCAAYYPSQDYSGFWSDTYEYWGQGTQVTVSS | low polyreactivity
QVQLVESGGGLVQAGGSLRLSCAASGRTFGINAMGWYRPAPGKERELVAAIRTGGSTYYADSVKGRFTISRDNAKNTVYLQMNSLKPEDTAVFYCAAVLYHNRKTEYTYGYWGQGTQVTVSS | high polyreactivity
QVQLVESGGGLVQAGGSLRLSCAASGRTFGINAMRWSRQATGKERELVAAITGRSGRTYYADSVKGRFTISRDNAKYTVYLQMNSLQPEDTAVYYCAARWPVYSRRYGYWGQGTQVTVSS | high polyreactivity
QVQLVESGGGLVQAGGSLRLSCAASGRTFGIYAMGWYRPAPGKERELVATISWRGGSTYYADSVKGRFTISRDNAKNTVYLQMNSLKPEDTAVYYCAAGYYPYWGQGTQVTVSS | low polyreactivity
QVQLVESGGGLVQAGGSLRLSCAASGRTFGIYAMGWYRQAPGKERELVAAITWSGDSTYYADSVKGRFTISRDNAKNTVYLQMNSLKPEDTAVYYCAADYFGVTSVRYDYWGQGTQVTVSS | low polyreactivity
QVQLVESGGGLVQAGGSLRLSCAASGRTFGIYAMGWYRQAPGKEREMVAAISRGGNTYADSVKGRFTISRDNAKNTVYLQMNSLKQEDTAVYYCAAYSSYYVHRFQHYDYWGQGTQVTVSS | high polyreactivity
QVQLVESGGGLVQAGGSLRLSCAASGRTFGKNAMGWYRQAPGKEREFVAAITSRGGSTYYADSVKGRFTISRDNAKNTVYLQMNSLKAEDTAVYYCNREYIRPSQRTEHYYWGQGTQVTVSS | low polyreactivity
QVQLVESGGGLVQAGGSLRLSCAASGRTFGKNAMGWYRQAPGKEREFVAAITSRGGSTYYADSVKGRFTISRDNAKNTVYLQMNSLKPEDTAVYYCAADYYQWSTFLGVYEYDYWGQGTQVTVSS | low polyreactivity
QVQLVESGGGLVQAGGSLRLSCAASGRTFGKYAMGWYRQAPGKESELVAAITNSGGSTYYADSVKGRFTISRDNAKNTVYLQMNSLKPEDTAVYYCNRLGYRGPSKLNHMGYWGQGTQVTVSS | high polyreactivity
QVQLVESGGGLVQAGGSLRLSCAASGRTFGLNAMGWYRQAPGKERELVAAISSSGGSTYYADSVKGRFTISRDNAKNTVYLQMNSLKPEDTAVYYCAKVLYRYGTAYYYWGQGTQVTVSS | high polyreactivity
QVQLVESGGGLVQAGGSLRLSCAASGRTFGLYAMGWYRQAPGKERELVAAIDQSTGSTYYADSVKGRFTISRDNSKNTVYLQMNSLKQEDTAVYYCAAEEASTVRYYWYDYWGLGTQVTVSS | high polyreactivity
QVQLVESGGGLVQAGGSLRLSCAASGRTFGLYAMGWYRQAPGKERELVAAISWGGGRTYYADSVKGRFTISRDNAKNTVYLQMNSLKPEDTAVYYCNAVYSPRYYVGGYDYWGQGTQVTVSS | high polyreactivity
QVQLVESGGGLVQAGGSLRLSCAASGRTFGLYAMRWYIQAPGKERELVAAIRGSAGSTYYADSVKGRFTISRDNAKNTVYLQMNSLKPEDTAVYYCATGGYPSLWYGYGYWGQGTQVTVSS | low polyreactivity
QVQLVESGGGLVQAGGSLRLSCAASGRTFGLYDMGWYRQAPGKERELVAGITRRGGRTYYADSVKGRFTISRDNAKNTVYLQMNSLKPEDTAVYYGAAGTLYLRHAQSPFDYWGQGTQVTVSS | high polyreactivity
QVQLVESGGGLVQAGGSLRLSCAASGRTFGNNAMGWYRQAPGKERELVAAITARGSRTYYADSVKGRFTISRDNAKNTVYLQMNSLKPEDTAVYYCNAGVRRYYRSLHSIGIYYYWGQGTQVTVSS | high polyreactivity
QVQLVESGGGLVQAGGSLRLSCAASGRTFGNYAMGWYRQAPGTERELVASITYTVGNTYYADSVKGRFTISRDNAKNTVYIQMNSLKPEDTAVYYCAADGFYLQFYHYDYWGQGTQVTVSS | low polyreactivity
QVQLVESGGGLVQAGGSLRLSCAASGRTFGPYAMGWYRQAPGKEREFVAAISYSGGSTYYADSVKGRFTISRDIAKNTVYLQMNSLKPEDTAVYYCAARLPSDHRPVVRGGYEMGYWGQGTQVTVSS | low polyreactivity
QVQLVESGGGLVQAGGSLRLSCAASGRTFGPYAMGWYRQAPGKERELVAAISSSGSTTYYADSVKGRFTISRDNAKNTVYLQMNSLKPEDTAVYYCAKPSSRDSPYDYWGQGTQVTVSS | low polyreactivity
QVQLVESGGGLVQAGGSLRLSCAASGRTFGPYAMGWYRQAPGKERELVAVISGRGTSTYYADSVKGRFTISRDNAKNTVYLQMNSMKPEDTAVYYCNADYGSWYWGFDYWGQGTQVTVSS | low polyreactivity
QVQLVESGGGLVQAGGSLRLSCAASGRTFGPYTMGWYRQAPGKEREFVAAINSSGSRTYYADSVKGRFTISRDNAKNTVYLKINSLKPEDTGVYYCAAEAKWYYSWSYPYEGDYWGQGTQVTVSS | low polyreactivity
QVQLVESGGGLVQAGGSLRLSCAASGRTFGQNALGWYRQAPGKERELVASIRSGGITDYADSVKGRFTISRDNAKNTVYLQMNSLKPEDTAVYYCNAEGVWWSTRYDSWGQGTQVTVSS | low polyreactivity
QVQLVESGGGLVQAGGSLRLSCAASGRTFGQNAMGWYRQAPGKERELVASIRSGGITDYADSVKGRFTISRDNAKNTVYLQMNSLKPDDTAVYYCNAEGVWWSTRYDSWGQGTQVTVSS | low polyreactivity
QVQLVESGGGLVQAGGSLRLSCAASGRTFGQYVMGWYRKAPGKERELVAAIRSGGSTYYADSVKGRFTISRDNAKNTVYLQMNSLKPEDTAVYYCAKETYYVTDNFGQVGGEMDYWGQGTQVTVSS | low polyreactivity
QVQLVESGGGLVQAGGSLRLSCAASGRTFGRNAMGWYRQAPGERELVAVISRGGSTYYADSVKGRFTISRDNAKNTVYLQMNSLKPEDTAVYYCNADTVYTRTAPYDYWGQGTQVTVSS | low polyreactivity
QVQLVESGGGLVQAGGSLRLSCAASGRTFGRNAMGWYRQAPGKERELVAAITWSGGSTYYADSVKGRFTISRDNAKNTVYLQMNSLKPEDTAVYYCAADRSRWGQGTQVTVSS | high polyreactivity
QVQLVESGGGLVQAGGSLRLSCAASGRTFGRNAMGWYRQAPGKERELVADISLRGGRTYYADSVKGRFTISRDNAKNTVYLQMNSLKPEDTAVYYCAAVQPVGLYPRTKYYYWGQGTQVTVSS | high polyreactivity
QVQLVESGGGLVQAGGSLRLSCAASGRTFGRNTMGWYRQAPGKERELVAGISRSAGRTYYADSVKGRFTISRDNAKNTVYLQMNSLKPEDTAVYYCAARYQGNYRTDKYDYWGQGTQVTVSS | high polyreactivity
QVQLVESGGGLVQAGGSLRLSCAASGRTFGRYAKGWYRQAPGKERELVATITSGGSTNYADSVKGRFTISRDNAKNTVYLQMNSLKPEDTAVYYCAAEFSPSRWAYSEGALRYNYWGQGTQVTVSS | low polyreactivity
QVQLVESGGGLVQAGGSLRLSCAASGRTFGRYALGWDRQAPGKDRELVAAISYSTDSTYYADSVKGRFTISRDNAKNTVYLQMNSLKPEDTAVYYCATDSVNVGSYVGDKHDYWGQGTQVTLSS | low polyreactivity
QVQLVESGGGLVQAGGSLRLSCAASGRTFGRYAMGWYRQAPGKERELVATITSGGSTNYADSVKGRFTISRDNAKNTVYLQMNSLKPEDTAVYYCAADVKRDRVWGGDYWGQGTQVTVSS | low polyreactivity
